For experiment [1], the target named is HIV-1 92TH021 envelope glycoprotein (Env) on pseudovirus (HIV-1). Briefly: cell-based or functional assay.
Experiment [2] has as its target HIV-1 93IN905 Env on pseudotyped virus (HIV-1 isolate 93IN905). Briefly: cell-based or functional assay.
The target of experiment [3] is HIV-1 94UG103 Env on pseudotyped virus (HIV-1 isolate 94UG103). The experiment can be described thus: cell-based or functional assay.
The target in experiment [4] is HIV-1 Env of isolate SC422661.8 (Acute), clade B, on pseudovirus (HIV-1). Briefly: cell-based or functional assay.
Experiment [5] concerns the target HIV-1 Env of pseudovirus 92TH021 (clade CRF01_AE) (HIV-1). The experiment can be described thus: cell-based or functional assay.
The target in experiment [6] is HIV-1 Env of pseudovirus MGRM-G-009 (clade G) (HIV-1). The experiment can be described thus: cell-based or functional assay.
For experiment [7], the target named is HIV-1 Env of pseudovirus MGRM-G-016 (HIV-1, clade G isolate MGRM-G-016). The experiment can be described thus: cell-based or functional assay.
The target of experiment [8] is HIV-1 JR-CSF Env on pseudotyped virus (HIV-1 isolate JR-CSF) (UniProt P20871). Briefly: cell-based or functional assay.
Experiment [9] has as its target HIV-1 NL43 Env on pseudotyped virus (HIV-1 NL43). The experiment can be described thus: cell-based or functional assay.
Experiment [10] addresses HIV-1 envelope glycoprotein (Env) of isolate MGRM-A-007, clade A (HIV-1). Briefly: cell-based or functional assay.
Experiment [11] concerns the target HIV-1 Env of pseudovirus MGRM-F1-013 (HIV-1). The experiment can be described thus: cell-based or functional assay.
For experiment [12], the target named is HIV-1 Env of isolate MGRM-AG-009 (HIV-1). The experiment can be described thus: cell-based or functional assay.
In experiment [13] the target is JR-FL gp120 ΔV1/ΔV2 (HIV-1). The experiment can be described thus: ELISA, antigen-coated wells. In general terms: ELISA stands for enzyme-linked immunosorbent assay.
Experiment [14] addresses HIV-1 Env of isolate 92RW008 (subtype A) (HIV-1). The experiment can be described thus: cell-based or functional assay.
The target in experiment [15] is HIV-1 Env of isolate 92UG031 (subtype A) (HIV-1). The experiment can be described thus: cell-based or functional assay.
In experiment [16] the target is HIV-1 Env of isolate 92UG037 (subtype A) (HIV-1). Briefly: cell-based or functional assay.
Experiment [17] concerns the target HIV-1 Env of isolate 92WR009 (subtype A) (HIV-1). Briefly: cell-based or functional assay.
In experiment [18] the target is HIV-1 Env of isolate 92WR020 (subtype A) (HIV-1). The experiment can be described thus: cell-based or functional assay.
Experiment [19] addresses HIV-1 Env of isolate 92WR021 (subtype A) (HIV-1). Briefly: cell-based or functional assay.
The target of experiment [20] is HIV-1 Env of isolate 92WR024 (subtype A) (HIV-1). The experiment can be described thus: cell-based or functional assay.
In experiment [21] the target is HIV-1 Env of isolate 93WR029 (subtype A) (HIV-1). The experiment can be described thus: cell-based or functional assay.
Experiment [22] addresses HIV-1 Env of isolate 94 KE 105 (subtype AC) (HIV-1). The experiment can be described thus: cell-based or functional assay.
Experiment [23] deals with HIV-1 Env of isolate 94UG103 (subtype A) (HIV-1). The experiment can be described thus: cell-based or functional assay.
Experiment [24] deals with HIV-1 Env of isolate MGRM-G-014 (HIV-1). Briefly: cell-based or functional assay.
Experiment [25] has as its target HIV-1 envelope glycoprotein (Env) of isolate 6535.3 (HIV-1). The experiment can be described thus: cell-based or functional assay.
The target in experiment [26] is HIV-1 envelope glycoprotein (Env) of isolate 92BR020 (HIV-1). The experiment can be described thus: cell-based or functional assay.
Experiment [27] addresses HIV-1 envelope glycoprotein (Env) of isolate 93TH305 (HIV-1). Briefly: cell-based or functional assay.
Experiment [28] concerns the target HIV-1 envelope glycoprotein (Env) of isolate APV_13 (HIV-1). Briefly: cell-based or functional assay.
The target of experiment [29] is HIV-1 envelope glycoprotein (Env) of isolate APV_17 (HIV-1). Briefly: cell-based or functional assay.
Experiment [30] deals with HIV-1 envelope glycoprotein (Env) of isolate APV_6 (HIV-1). Briefly: cell-based or functional assay.
Experiment [31] addresses HIV-1 envelope glycoprotein (Env) of isolate CAAN.A2 (HIV-1). Briefly: cell-based or functional assay.
The target of experiment [32] is HIV-1 envelope glycoprotein (Env) of isolate JR-FL (HIV-1). Briefly: cell-based or functional assay.
The target of experiment [33] is HIV-1 envelope glycoprotein (Env) of isolate MGRM-Chronic-B-001 (HIV-1). The experiment can be described thus: cell-based or functional assay.
For experiment [34], the target named is HIV-1 envelope glycoprotein (Env) of isolate MGRM-Chronic-B-002 (HIV-1). Briefly: cell-based or functional assay.
Experiment [35] deals with HIV-1 envelope glycoprotein (Env) of isolate MGRM-Chronic-B-003 (HIV-1). Briefly: cell-based or functional assay.
Experiment [36] has as its target HIV-1 envelope glycoprotein (Env) of isolate MGRM-Chronic-B-004 (HIV-1). Briefly: cell-based or functional assay.

Chain of 1443_C16 (PG16) (TCN-116) (antibody) (VH): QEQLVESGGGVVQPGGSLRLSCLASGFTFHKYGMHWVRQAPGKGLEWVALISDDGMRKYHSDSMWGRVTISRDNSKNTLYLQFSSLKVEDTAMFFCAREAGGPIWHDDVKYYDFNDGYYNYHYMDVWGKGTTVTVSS
Chain of 1443_C16 (PG16) (TCN-116) (antibody) (VL): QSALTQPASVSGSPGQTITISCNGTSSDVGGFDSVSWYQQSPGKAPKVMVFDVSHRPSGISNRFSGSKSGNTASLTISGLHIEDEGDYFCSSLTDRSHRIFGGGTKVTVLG

For orientation: IC50 means the concentration at which inhibition is half-maximal. Low readings indicate inhibition by little substance, high ones a need for much substance. 1443_C16 (PG16) (TCN-116) (antibody) displayed an IC50, pseudovirus neutralization in experiment [1] of 0.127 µg/mL. For the same substance, the Neutralizing Antibody Assay: IC50; Virus/Ab Incubation 1 hour is 0.33 µg/mL in experiment [2], 0.0211 µg/mL in experiment [3], below 0.0025 µg/mL in experiment [8] and below 0.0025 µg/mL in experiment [9]. Also, the Neutralizing Antibody Assay: IC50; Virus/Ab Incubation 18 hour in experiment [2] was 0.255 µg/mL; in [3] it was 0.0085 µg/mL; in experiment [8], below 0.0025 µg/mL; in [9], 4.99 µg/mL. Further, the IC50 (µg/ml), pseudovirus neutralization in experiment [4] was 1.13 µg/mL; in experiment [7], 11.3 µg/mL; in experiment [10], 5.91 µg/mL. Also, the values for the IC50 in experiment [5] and in experiment [6] were 0.1 µg/mL and above 50 µg/mL, respectively.

Take 2G12 (antibody): in experiment [1], the IC50, pseudovirus neutralization was above 50 µg/mL. Also, the IC50 (µg/ml), pseudovirus neutralization in [4] was 0.84 µg/mL; in experiment [11] it was above 50 µg/mL; in experiment [7], above 50 µg/mL; in experiment [10], above 50 µg/mL. For the same substance, the IC50 in experiment [5] and in [6] was above 50 µg/mL each time.

Regarding 4E10 (antibody), the IC50, pseudovirus neutralization in experiment [1] amounted to 1.9 µg/mL. Also, the figures for the IC50 (µg/ml), pseudovirus neutralization in experiment [4], in experiment [7] and in experiment [10] were 6.35 µg/mL, 1.02 µg/mL and 1.82 µg/mL, respectively. Further, the IC50 in [5] came to 1.17 µg/mL; in [6], 1.34 µg/mL.

In the case of b12 (antibody), the IC50, pseudovirus neutralization in experiment [1] came to 9.99 µg/mL. The IC50 (µg/ml), pseudovirus neutralization in experiment [4] was 6.11 µg/mL; in experiment [11], above 50 µg/mL; in experiment [7] it was above 50 µg/mL; in experiment [10] it was above 50 µg/mL. The same substance showed an IC50 in experiment [6] above 50 µg/mL.

A word on the EC50: it is the concentration that produces a half-maximal response. Lower therefore signals greater potency. In experiment [12], 4838_L06 (PGT-121) (antibody) showed an IC50 of 0.08 µg/mL. The EC50 in [13] is 0.2 µg/mL.

VRC01 (antibody): the IC50 (µg/mL), pseudovirus neutralization in experiment [14] came to 0.037 µg/mL; in experiment [15] it was 0.469 µg/mL; in experiment [16], 0.245 µg/mL; in experiment [17], 0.187 µg/mL; in experiment [18] it was 0.13 µg/mL; in experiment [19], 0.066 µg/mL. The IC50 (µg/mL), pseudovirus neutralization in experiment [20] worked out at 0.327 µg/mL; in experiment [21] it was 1.57 µg/mL; in [22], 0.499 µg/mL; in experiment [23], 0.285 µg/mL; in experiment [24], 0.056 µg/mL; in experiment [25], 1.75 µg/mL. Further, the IC50 (µg/mL), pseudovirus neutralization in [26] was found to be 0.29 µg/mL; in experiment [27], 0.243 µg/mL; in experiment [28] it was 0.657 µg/mL; in experiment [29] it was 0.477 µg/mL; in [30], 1.81 µg/mL; in experiment [31] it was 0.722 µg/mL. The IC50 (µg/mL), pseudovirus neutralization in experiment [32] amounted to 0.034 µg/mL; in [33], 0.066 µg/mL; in [34], 0.117 µg/mL; in [35] it was 0.1 µg/mL; in experiment [36] it was 0.055 µg/mL.

For 5114_A19 (PGT-128) (antibody), the EC50 in [13] turned out to be 0.3 µg/mL.

The substance PGV04 (antibody) had an IC50 (µg/mL), pseudovirus neutralization in experiment [24] of 0.056 µg/mL.

For 2F5 (antibody), the IC50, pseudovirus neutralization in experiment [1] came to 1.51 µg/mL. Moreover, the IC50 (µg/ml), pseudovirus neutralization was above 50 µg/mL in experiment [4], 4.57 µg/mL in experiment [11], 16.8 µg/mL in experiment [7] and 16.3 µg/mL in experiment [10]. In [6], this substance gave an IC50 of 7.21 µg/mL.

The values above are taken from patent US20250320281A1.
